Test results published in patent CN116675768A (WUHAN ABCLONAL INC, dated 2023).

T1: 重组人NEFL蛋白 (human, UniProt P07196 400-543)
T1 construct: Expressed in E. coli Rosetta(DE3) from the vector pET-28a-sumo and purified on a Ni column; also called 人轻肽神经细丝蛋白(NEFL); 神经丝轻链
T1 sequence: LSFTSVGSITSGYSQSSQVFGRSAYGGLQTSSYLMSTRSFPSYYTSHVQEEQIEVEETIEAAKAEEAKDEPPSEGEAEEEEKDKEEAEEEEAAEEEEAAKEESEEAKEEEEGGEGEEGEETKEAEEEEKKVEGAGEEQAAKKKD

B1: 兔单克隆抗体1H8 (antibody, V domains shown)
VH: QSLEESGGRLVTPGTPLTLTCAVSGIDLSRYGIDWVRQAPGKGLEWIGTVSAGGDSWYASWAKGRFTISKTSSTTVDLEVTSPTTEDTATYFCAKGATLNLWGQGTLVTVSS
VL: DPVLTQTPSSTSAAVGGTVTINCQSSQNVYGNNWLAWYQKKPGQSPKLLIISASSLPSGVPSRFKGSGSGTQFTLTISDLECDDAATYYCAGGYSGYIYTFGGGTEVVVKG
notes: also called 抗人NEFL蛋白的兔单克隆抗体1H8; 捕获抗体
B2: 兔单克隆抗体2G10 (antibody, V domains shown)
VH: QSLEESGGRLVTPGTRLTLTCTVSGFSLGRYAMGWVRQAPGKGLEWIGIINSYGTTYYASWAKGRFTISKTSTTVDLKITSPTTEDTATYFCARDGYEDYGDYYNAFDPWGPGTLVTVSS
VL: DVVMTQTPASVSEPVGGTVTIKCQASQSIGVTLAWYQQKPGQPPKLLIYKASNLASGVSSRFKGSRSGTEYTLTISDLECADAATYYCQCTWYGPSFVGAFGGGTEVVVKG
notes: also called 抗人NEFL蛋白的兔单克隆抗体2G10; 2G10-biotin

Target: T1, 重组人NEFL蛋白
Assay: BLI (Gator); antibody 2 μg/mL, recombinant human NEFL 150 nM and 75 nM

Binder | Kd | koff | kon
B1 | 2.03 nM | 0.000504 s⁻¹ | 248000 M⁻¹ s⁻¹
B2 | 3.2 nM | 0.00043 s⁻¹ | 134000 M⁻¹ s⁻¹
